The values below come from paper PMC6201368.

B1: SCN1Bβ/WT (Navβ1b, sodium channel beta1b subunit) [human] / Kv4.3 (KCND3/WT) [human] (parent)
chain 1: GGCVEVDSETEAVYGMTFKILCISCKRRSETNAETFTEWTFRQKGTEEFVKILRYENEVLQLEEDERFEGRVVWNGSRGTKDLQDLSIFITNVTYNHSGDYECHVYRLLFFENYEHNTSVVKKIHIEVVDKGESGAACPFTVTHRRARWRDRWQAVDRTGWLCAWPANRPQQRAEGEGSSPSCPLQLWPLFLSSPRRGQSMPVPHRRSGYRTQLCHLCCMTSGRCLLSLSQRVVLGLPGIIIRCVSRGVV
chain 2: MAAGVAAWLPFARAAAIGWMPVANCPMPLAPADKNKRQDELIVLNVSGRRFQTWRTTLERYPDTLLGSTEKEFFFNEDTKEYFFDRDPEVFRCVLNFYRTGKLHYPRYECISAYDDELAFYGILPEIIGDCCYEEYKDRKRENAERLMDDNDSENNQESMPSLSFRQTMWRAFENPHTSTLALVFYYVTGFFIAVSVITNVVETVPCGTVPGSKELPCGERYSVAFFCLDTACVMIFTVEYLLRLFAAPSRYRFIRSVMSIIDVVAIMPYYIGLVMTNNEDVSGAFVTLRVFRVFRIFKFSRHSQGLRILGYTLKSCASELGFLLFSLTMAIIIFATVMFYAEKGSSASKFTSIPASFWYTIVTMTTLGYGDMVPKTIAGKIFGSICSLSGVLVIALPVPVIVSNFSRIYHQNQRADKRRAQKKARLARIRVAKTGSSNAYLHSKRNGLLNEALELTGTPEEEHMGKTTSLIESQHHHLLHCLEKTTGLSYLVDDPLLSVRTSTIKNHEFIDEQMFEQNCMESSMQNYPSTRSPSLSSHPGLTTTCCSRRSKKTTHLPNSNLPATRLRSMQELSTIHIQGSEQPSLTTSRSSLNLKADDGLRPNCKTSQITTAIISIPTPPALTPEGESRPPPASPGPNTNIPSIASNVVKVSAL

The variants in this assay derive from B1. The assay is described as follows: co-immunoprecipitation (IP anti-KCND3, immunoblot anti-SCN1Bβ), band quantification. As to conditions: with Kv4.3 (KCND3/WT) [human]; HEK293 cells co-transfected with KCND3/WT and SCN1Bβ; parent: 1; read off a plot.
Regarding chain 1 R232T, the ratio to parent was 1.2.

Consider chain 1 S230R, for which the ratio to parent came to 1.
